The values that follow come from paper PMC5021285.

“And” between values parts separate entries of the source, which are not always exact repeats. Identical values can stand only once.

Experiment [1] addresses LigB12, tag free (12th Ig-like domain of Leptospira immunoglobulin-like protein B) (Leptospira interrogans serovar Pomona). Nature of the experiment: SPR; Biacore 3000; tag free LigB12 amine-coupled to a CM5 chip (1000 RU); FgαCC truncates 0-3 μM in PBS, 30 μL/min, 25°C; 1:1 Langmuir model. A general note: Surface plasmon resonance follows binding to a sensor surface in real time, without labels.

Experiment [2] concerns the target LigB12 A1065K (Leptospira interrogans serovar Pomona). Nature of the experiment: ELISA; LigB12 WT, mutants or BSA coated (1 μM/well); 5 μM GST-FgαCC8; anti-GST-HRP; relative binding (%) against WT.
The target of experiment [3] is LigB12 F1054A (Leptospira interrogans serovar Pomona). Described as above.
Another experiment has as its target D1066A and E1088A. The description is as above.
In experiment [4] the target is LigB12 D1061N (Leptospira interrogans serovar Pomona). The description is as above.
Experiment [5] deals with His-Sumo tagged FgαCC8 (human) (UniProt P02671). Nature of the experiment: ELISA; His-Sumo FgαCC8 captured by coated anti-His antibody; GST-LigB12 0-5 μM in phosphate buffer pH 7, 75 mM NaCl; anti-GST-HRP. (In general: An ELISA detects its analyte on a solid surface through an enzyme-linked reagent.)
A further experiment deals with FgαCC5 (human) (UniProt P02671). Nature of the experiment: ELISA; 1 μM FgαCC, FgαCC truncates or BSA coated on microtiter wells; GST-LigB12 0-3 μM, 1 h 37°C; anti-GST-HRP; KD = EC50 of a dose-response fit.
The next experiment has as its target FgαCC3 (human) (UniProt P02671). The description is as above.
The target in experiment [6] is FgαCC8 (C-terminal 23 amino acids of the fibrinogen α chain) (human) (UniProt P02671). Described as above.
Another experiment addresses FgαCC2 (human) (UniProt P02671). Described as above.
Experiment [7] addresses FgαCC (C-terminal region of the fibrinogen αC domain) (human) (UniProt P02671). The description is as above.
For experiment [8], the target named is Factor XIII (FXIII) (UniProt P00488). Nature of the experiment: ELISA; FXIII, FgαCC8 (positive control) or BSA coated; GST-LigB12 0-3 μM; anti-GST-HRP.
The target in experiment [9] is His-Sumo tagged FgαCC8 (human) (UniProt P02671). Briefly: ELISA; His-Sumo FgαCC8 captured by coated anti-His antibody; GST-LigB12 0-5 μM in phosphate buffer pH 7, 150 mM NaCl; anti-GST-HRP (Fig 5A and Fig 5B).
Experiment [10] shares this target. Briefly: ELISA; His-Sumo FgαCC8 captured by coated anti-His antibody; GST-LigB12 0-5 μM in phosphate buffer pH 6, 1200 mM NaCl; anti-GST-HRP.
Experiment [11] has the same target. Briefly: ELISA; His-Sumo FgαCC8 captured by coated anti-His antibody; GST-LigB12 0-5 μM in phosphate buffer pH 5, 150 mM NaCl; anti-GST-HRP.
Experiment [12] has the same target. Briefly: ELISA; His-Sumo FgαCC8 captured by coated anti-His antibody; GST-LigB12 0-5 μM in phosphate buffer pH 6, 75 mM NaCl; anti-GST-HRP.
The target is the same in experiment [13]. Briefly: ELISA; His-Sumo FgαCC8 captured by coated anti-His antibody; GST-LigB12 0-5 μM in phosphate buffer pH 6, 150 mM NaCl; anti-GST-HRP.
Experiment [14] shares this target. Nature of the experiment: ELISA; His-Sumo FgαCC8 captured by coated anti-His antibody; GST-LigB12 0-5 μM in phosphate buffer pH 7, 1200 mM NaCl; anti-GST-HRP.
A further experiment has as its target FgαCC8 H614A (human) (UniProt P02671). Nature of the experiment: ELISA; FgαCC8 WT, alanine mutants or BSA coated (1 μM/well); 5 μM GST-LigB12; anti-GST-HRP; relative binding (%) against WT.
For a further experiment, the target named is FgαCC8 L618A (human) (UniProt P02671). The description is as above.
A further experiment concerns the target FgαCC8 I613A (human) (UniProt P02671). The description is as above.
The target of the next experiment is FgαCC8 R608A (human) (UniProt P02671). Described as above.
The next experiment concerns the target FgαCC8 R611A (human) (UniProt P02671). The experiment is described as above.
Experiment [15] deals with Factor XIII (FXIII) (UniProt P00488). Briefly: ELISA; inhibition: FXIII coated; tag free LigB12 or LigB4 0-10 μM, 1 h 37°C, unbound washed off; then 1 μM His-Sumo FgαCC, 1 h 37°C; anti-His-HRP; binding relative to wells without LigB.
Experiment [16] concerns the target GST tagged FgαCC8, P02671-2. Nature of the experiment: ELISA. Conditions: 5 μM GST tagged FgαCC8 added to coated wells (1 μM/well); parent: est. 100; read off a plot.
Experiment [17] addresses T1, GST tagged LigB12 (12th Ig-like domain of Leptospira immunoglobulin-like protein B).
T1 chain: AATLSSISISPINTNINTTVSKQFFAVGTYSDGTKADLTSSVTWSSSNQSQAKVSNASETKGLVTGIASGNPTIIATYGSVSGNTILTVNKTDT
Briefly: ELISA. Conditions: chain shown with the change; 5 μM GST tagged LigB12 added to coated wells (1 μM/well); parent: est. 100; read off a plot.

Chain of UniProt P00488 (P00488 whole entry, chain 1 of 2): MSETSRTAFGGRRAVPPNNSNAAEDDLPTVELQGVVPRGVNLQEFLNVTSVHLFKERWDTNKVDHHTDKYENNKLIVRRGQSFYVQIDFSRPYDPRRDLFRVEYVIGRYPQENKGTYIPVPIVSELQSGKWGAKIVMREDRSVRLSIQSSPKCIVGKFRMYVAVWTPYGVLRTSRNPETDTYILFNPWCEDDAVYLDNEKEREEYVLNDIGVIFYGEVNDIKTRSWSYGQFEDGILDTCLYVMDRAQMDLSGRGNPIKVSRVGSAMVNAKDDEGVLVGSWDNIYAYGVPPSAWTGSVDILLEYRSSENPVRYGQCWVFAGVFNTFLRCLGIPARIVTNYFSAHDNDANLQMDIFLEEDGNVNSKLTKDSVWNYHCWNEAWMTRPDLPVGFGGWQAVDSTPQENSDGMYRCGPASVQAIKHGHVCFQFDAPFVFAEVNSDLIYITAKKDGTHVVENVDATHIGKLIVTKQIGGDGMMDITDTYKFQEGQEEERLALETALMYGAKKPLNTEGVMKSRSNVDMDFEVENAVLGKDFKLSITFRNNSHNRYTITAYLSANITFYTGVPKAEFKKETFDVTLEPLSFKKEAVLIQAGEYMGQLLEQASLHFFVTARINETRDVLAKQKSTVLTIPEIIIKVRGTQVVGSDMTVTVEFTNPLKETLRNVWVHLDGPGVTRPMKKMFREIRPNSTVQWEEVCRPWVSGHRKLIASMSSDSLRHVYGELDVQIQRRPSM
Chain of UniProt P00488 (P05160 21-661, chain 2 of 2, further chain): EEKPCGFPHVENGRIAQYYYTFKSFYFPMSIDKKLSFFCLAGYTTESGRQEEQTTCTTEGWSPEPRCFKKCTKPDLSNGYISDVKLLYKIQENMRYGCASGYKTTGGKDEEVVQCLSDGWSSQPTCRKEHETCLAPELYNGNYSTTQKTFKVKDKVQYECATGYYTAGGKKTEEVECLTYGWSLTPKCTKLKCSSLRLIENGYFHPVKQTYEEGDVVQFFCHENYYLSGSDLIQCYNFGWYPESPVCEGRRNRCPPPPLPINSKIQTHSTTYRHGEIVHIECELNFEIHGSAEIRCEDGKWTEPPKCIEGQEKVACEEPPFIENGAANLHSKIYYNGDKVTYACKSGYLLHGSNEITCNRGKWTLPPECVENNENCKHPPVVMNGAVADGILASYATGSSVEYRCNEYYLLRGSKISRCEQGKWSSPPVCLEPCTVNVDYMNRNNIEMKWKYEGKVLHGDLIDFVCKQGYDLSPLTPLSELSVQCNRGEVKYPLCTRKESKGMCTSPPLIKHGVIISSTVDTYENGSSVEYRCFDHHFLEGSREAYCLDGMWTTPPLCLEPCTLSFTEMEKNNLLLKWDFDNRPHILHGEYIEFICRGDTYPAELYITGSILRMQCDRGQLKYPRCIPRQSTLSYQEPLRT

As to “FgαCC3 (from UniProt P02671-2 526-644) (domain or fragment)”, in experiment [1], the dissociation constant (Kd) came out at 704 nM, the koff came out at 0.0339 s⁻¹ and the kon came to 48100 M⁻¹ s⁻¹.
On to “FgαCC5 (from UniProt P02671-2 579-644) (domain or fragment)”, for which, in experiment [1], the equilibrium dissociation constant (Kd) was 1040 nM, the koff was 0.0384 s⁻¹ and the kon was 36900 M⁻¹ s⁻¹.
For “FgαCC8 (C-terminal 23 amino acids of the fibrinogen α chain) (from UniProt P02671-2 622-644) (domain or fragment)” the same measures were 959 nM, 0.0357 s⁻¹ and 37200 M⁻¹ s⁻¹.
In the case of “GST tagged FgαCC8 (from UniProt P02671-2 622-644) (domain or fragment)”, the percent reduction of binding relative to WT was 46% in [2]; 51% in experiment [3]; 10 to 12% in the experiment with D1066A and E1088A; > 30% in [4].
As to “GST tagged LigB12 (12th Ig-like domain of Leptospira immunoglobulin-like protein B) (domain or fragment)”, the Kd in experiment [5] is 460 nM; with FgαCC5 (human), 580 nM; with FgαCC3 (human), 510 nM; in experiment [6] it was 760 nM; in [7], 370 nM; with Factor XIII (FXIII) [8], 150 nM. In addition, the dissociation constant (Kd) was 820 nM and 620 nM in experiment [9]; 220 nM in experiment [10]; 1830 nM in [11]; 1290 nM in experiment [12]; 470 nM in experiment [13]; 6610 nM in experiment [14]. Further, the fold over the negative control (BSA) at 3 μM LigB12 in the experiment with FgαCC2 (human) amounted to 2.5 fold. The percent reduction of binding relative to WT with FgαCC8 H614A (human) was 50%; in the experiment with FgαCC8 L618A (human) it was 12%; in the experiment with FgαCC8 I613A (human), 47%; in the experiment with FgαCC8 R608A (human), > 60%; in the experiment with FgαCC8 R611A (human), > 60%.
With “LigB12, tag free (12th Ig-like domain of Leptospira immunoglobulin-like protein B) (domain or fragment)”, the percent reduction of FgαCC binding to FXIII at high LigB12 concentrations (fit of the dose inhibition curve) in the experiment with Factor XIII (FXIII) [15] turned out to be 56.7%.
With “LigB12, tag free (12th Ig-like domain of Leptospira immunoglobulin-like protein B) D1066A”, in [16], the percent of parent was 88 % of WT.
As to “LigB12, tag free (12th Ig-like domain of Leptospira immunoglobulin-like protein B) E1088A”, the percent of parent in [16] was 90 % of WT.
Same read-out and setting: the figure for “LigB12, tag free (12th Ig-like domain of Leptospira immunoglobulin-like protein B) P1040C; F1053C” is 96 % of WT.
Take GHAKSRPARGIHTSPLGKPSLSP [FgαCC8 (C-terminal 23 amino acids of the fibrinogen α chain), P02671-2 V610A]: in experiment [17], the percent of parent is 99 % of WT.
On the same count and under the same terms, the figure for GHAASRPVRGIHTSPLGKPSLSP [FgαCC8 (C-terminal 23 amino acids of the fibrinogen α chain), P02671-2 K606A] is 78 % of WT; for MADEAGSEADHEGTHSTARGHAK [FgαCC8 (C-terminal 23 amino acids of the fibrinogen α chain), P02671-2 K620A] it is 77 % of WT.

What is called Kd is the equilibrium constant for the complex coming apart. The low end stands for higher affinity, the high end for lower affinity. A word on the koff: it is the rate constant with which the complex falls apart. A low value points to a long-lived complex. What is called kon is the rate constant with which the complex forms. Higher therefore signals fast association.
